The test deals with Flag-HsPRMT5 (UniProt O14744). Description: biotinylated peptide pull-down on streptavidin beads. The following applies: reference: unmodified H4 peptide; sites S1.

With “histone H4 1-20 (from UniProt P62805) H4 S1ph peptide”, the “binding against the reference” value is “lost”.

Values taken from PMC3581573.
